Measured values taken from the DeepSol protein solubility set.

Assay: soluble on expression in E. coli; label from the status in PepcDB or PDB records

| Sequence | soluble on expression in E. coli |
| --- | --- |
| PILYLHGFRSSPDSFKARLLAQAMHQRGLAGQWQCPQLPASPRQAAELALALAREQLAGQQDPRRLTVIGSSLGGYYATWLAERLGCQAVLLNPAVQAARDLATQVGEHRMYHSDAPFHFLPEYVEELRALYADPLTHPERYFLVAATGDEVLDWREMRDRYPGCRQRIVQGGDHGLSDFPRWMPEVLEFA | not soluble |
| MGSDKIHHHHHHMAIAPTLNIPQAKFLAMQYKFKAYVAGFGSGKTWVGCGGICKGMWEHPKINQGYFAPTYPQIRDIFYPTVEEVAHDWGLNVKINEGNKEVHFYAGRQYRGTTICRSMEKPQTIVGFKIGNALIDELDVMPAKKAQLAWRKIIARMRYNVAGLRNGIDVTTTPEGFKFVYQQFAKAVRDKPSLSTLYGLVQASTFDNEKNLPPDYIPSLMESYPPELIKAYLRGQFTNLTSGTIYHQFDRKLNNCREEEQPGEPLYIGMDFNVGKMAGVVHVLRLGLPFAVTEIIKAYDTPDMIRIIKERFWLCDGHDYRKVREIYIYPDASGDSRKSSNASATDIAQLKQAGFNVVVNASNPPVKDRINAMNAMFCNGNGERRYKVNVKRCPVYTESLEQQVWGENGEPDKTADNDHPNDAGGYFIVKQFPIIKPTGKVTQLRM | not soluble |
| MRPRYRASGPSSSPDRTSSQPGSRSMIQCKRVYEPASPADGRRVLVDRLWPRGIRKEALAMDDWLKEVAPSNEVRKQFCHDPALFDSFREHYRAELQAHPEHWWGLLDSAREGTLTLLYGAHDQQHNNAVVLAEFLEEELDRQQPGSSPTCYADRLS | not soluble |
| MSLLPSQSPAIFTVSRLNQTVRLLLEHEMGQVWISGEISNFTQPASGHWYFTLKDDTAQVRCAMFRNSSRRVTFRPQHGQQVLVRANITLYEPRGDYQIIVESMQPAGEGLLQQKYEQLKAKLQAEGLFDQQYKKPLPSPAHCVGVITSKTGAALHDILHVLKRRDPSLPVIIYPAAVQGDDAPGQIVRAIELANQRNECDVLIVGRGGGSLEDLWSFNDERVARAIFTSRIPVVSAVGHETDVTIADFVADLRAPTPSAAAEVVSRNQQELLRQVQSTRQRLEMAMDYYLANRTRRFTQIHHRLQQQHPQLRLARQQTMLERLQKRMSFALENQLKRTGQQQQRLTQRLNQQNPQPKIHRAQTRIQQLEYRLAETLRAQLSATRERFGNAVTHLEAVSPLSTLARGYSVTTATDGNVLKKVKQVKAGEMLTTRLEDGWIESEVKNIQPVKKSRKKVHEGHHHHHH | not soluble |
| SESICNSLNSKLEPTLENLENLDVSAFQAPEDLLDGCRIYLCGFSGRKLDKLRRLINSGGGVRFNQLNEDVTHVIVGDYDDELKQFWNKSAHRPHVVGAKWLLECFSKGYMLSEEPYIH | soluble |
| MAHHHHHHMMQSKVLPTPQDVVLQGLLSLDSTVKTKTHALVSRQLDRLESYLRIKCGWSVPLSSSSTSAEAGCGSNVVRVSEYVRAFTPDGVPIVDRNGGSFNCFVCCGFGDHAMDFAPGAAKVLGKLVEHQAQHLREEDIEKTKTWGLLTSKLSPSRRAAVEEELQLLFNGVDSDAVKRKGSRTPSEASALALLRHEDNPYSTNRFANMVRKEVKMDSSPPILSRLCALEDVFLTHLEPLRRRFHAKATELALRENTPDWLRTFVFCFMYEEDDDPAAQARKEQHVRSLQRLASQYETPVTDAKTTGDGAEELPLTPAEQSKRKQAELERRAREVFAKRV | not soluble |
| MDMPKPPFVIYKGKVEEEFARLHKDGKSLLKAESKFVQFLGLQELTDRACDHVELANPTKNTIIFNIRTPTSPCFFVKPHVGMIDPGGKATLYFTFKGRCHRVPSDYCWIYSIYQLVVDEKTTAFIKEDEFSSQNLRSAWIKHGRKQVNNILHLASSFKAGKPKFECRDGHRKFLERKIYLNDLGDVENSGKSKTENTTDITPANMKKGKLNKAASSDTMDDLPKTAD | not soluble |
| MGSDKIHHHHHHMKKLALISLDGNGIYNLKYMPFLSELAEKGDIFTVDSIFPTLTDLVHTTVMTGVEPRHHWVVENGYYDRLSGVRVKFYEYDVAFNPHKVIKAPLIQDILRQRGVRIASVSGYTMPPFSNVDVRIFPPFFSSDELYRRHGRDWKKDVWVLNSALYLYEECKPDLLLVHFASIDGMQHDHGPESREALKAVETVDSAIRALWERLKDEYAFIIFADHGQEEVHTWVNLREYLRNKGIETLRVSSGGGVHVYLKDPREREDAYEVLRRAPGVKAVFLREDLPYLNAPVSGDLIVSAKEGFWFCHHRECKGIKGKSYWVRGMHGSLNERVVKVPLVLWNLEAKKEEATLYDIAPTILKFFGVEKRVEMIGKSLI | not soluble |
| MGGTSYLIVGNEGNILIDCPALDQTNLNFLRSHGGVRWLFLTHRGAIGRTAEIQQNYGCDILIQEQEAYLLPGLTVTTFTQEFAVTPTAKAIWTPGHSPGSSCLYYNHQGGVLFSGRHLLPNQKGEPVPLRTAKTFHWPRQIKSLQTILETLTPETLQYICPGANTGFLRGKRSIDTAYQRLASLDLKALLQTQPLEHHHHHH | not soluble |
| MPSERRPFQTAFLSNRKTVGKLAERVQSRYDGLHKFKHICSAAMALIKEPLDKVKQRNEELEAAEEAAAQEALGREQEAARVSEWEERYKLSRSEFEQFWKGLPQTVQNKLQASQKTWKSGMDKICANNAKAEGKTPNGIKFSELACKTAKTEARLEELHNRKKALIDEMAREADKKELSKRL | not soluble |
| MAHHHHHHMKMISFNVFRHVESPACCPPASFVADLSITSKKNTHKHLLSFFIFPLFLESLSVMLPTQKPVLFTPGPLMTSDTVKEAMLTDYASRDIRFVQAVKFIREELISVAGLDPQKWACILQQGSGSMGIEAAISTIFPRTGGKFLLINSGKYSEKQACVVKRLQFPMVMLKMGEGEELKMSALESIIRANPDITTVGFVHHETSTGMLYPAEQIAEVVRRELPKAKIIIDGISAFGGIPCDYEKACDVLVAAPNKCLHSVPGISIILARRLLIEAAKGCARSATLDLSMQLMSFDKSGQFAVTPPVHVVMALQQALVEYKRDGGLSGRQKTYQAKAQLVREAVKAMGFTLFLGESKPSCANVVVCVNMPRDPRWNFKRFYTYLNERGLIIYPGKASHAETFRFGIIGHTSLANCERLMKCAKEALKSMGIDHLQRKSNM | not soluble |
| GPGSMCNRFSCSSCRYVVPIQSRRPLTINHSFLKYNKVVDDDDEKGSSNTVKRGVKEEEEVDGGQVITVRCQNDEKQCDGDRAHYVQIQMRSADEPATTFFKCLKCGFQWKQD | soluble |
| MSLSFHEIRFPASLSFGSVGGPERRTDVVTLANGFEERNTPWAHSRRRYDAGMGMRSLDDIEALIAFFEARQGQIFGFRWKDWSDYKSARPTAEVDFRDQVIGLGDGVQTGFQLLKSYRSGDSIYPRPIAKPVDGTVRMGLGQEEIKEGIDFTLDPTTGMVVLSHPPENGIEVVAGFEFDVPVRFDTDRILTSVASFQAGDVPNVPVVEVRAEGHHHHHH | soluble |
| MRDWVIPPISCPENEKGEFPKNLVQIKSNRDKETKVFYSITGQGADKPPVGVFIIERETGWLKVTQPLDREAIAKYILYSHAVSSNGEAVEDPMEIVITVTDQNDNRPEFTQEVFEGSVAEGAVPGTSVMKVSATDADDDVNTYNAAIAYTIVSQDPELPHKNMFTVNRDTGVISVLTSGLDRESYPTYTLVVQAADLQGEGLSTTAKAVITVKDINDNAPVFNPS | soluble |
| MSSVPRFWRNLGSRYNLEGTRCKECGEYFYPPRNVCVNCRRMGELEPFKFKGTGEIVSYTLIHTGAEGFEGQAPYTLAIIKLDEGPRLTSQVVGNTDNIQIGTRVRSVFRKLGEDGERGMIYYGTKFVPVDALEHHHHHH | soluble |
| MGAQYLKRVYLMSVIAETNEALLAKIKALCGDYLREVDTHPGQWDDSSVRRLVRNPPAVYVAWLGQQPNNNPHTVTARWGVFVVAEVLNGQRRNAVGIYQIVETLTAGLHKQRIAPSGMFELQTVQNLWSDTQSGMGVAVYGMYFNAVQPLPDMTSDDTLCDFKIYDHTFNQDKDEHTIDGKTRLTVELPTQSD | not soluble |
| MWIIEAEGDILKGKSRILFPGTYIVGRNVSDDSSHIQVISKSISKRHARFTILTPSEKDYFTGGPCEFEVKDLDTKFGTKVNEKVVGQNGDSYKEKDLKIQLGKCPFTINAYWRSMCIQFDNPEMLSQWASNLNLLGIPTGLRDSDATTHFVMNRQAGSSITVGTMYAFLKKTVIIDDSYLQYLSTVKESVIEDASLMPDALECFKNIIKNNDQFPSSPEDCINSLEGFSCAMLNTSSESHHLLELLGLRISTFMSLGDIDKELISKTDFVVLNNAVYDSEKISFPEGIFCLTIEQLWKIIIERNSRELISKEIERLKYATASNSTPQKIAAALEHHHHHH | soluble |
| PQEKLIFTLDSADRAYRVLVEAMNEGTATLASDGTILYCNRQFAELTKMSSGAVVGTSIYGFIAPEDAITFKALLKQKNSVGELKFRAQGGTSVPVYLSISSLQSEGSPSAWCLVVTDL | not soluble |
| MGSDKIHHHHHHMGAARRLPSALFLLGCRTRTRGEHAHMGKIRTGIGGWTFEPWRGTFYPDDLKQKDELKYAASKLTSIEINGTYYSTFKPNSWMKWRDETPDDFVFSVKASRFCTNRRVLSENNDSLEKFLSQGLEELGPKLGPINWQFMATKKFDPADFEGFLKLLPSEQKGVRLRHAMEVRSPTFACQQFYDLCAQYGVAIVYAVDDEAPEWPRIDQPTADFTYARLMCSREDEPTGMTSEELDGVVAQTHKWAERGDVFAYFIAGAKVRNPAAAMALIGKLGG | not soluble |
| SNAMKRKVQVKNITIGEGRPKICVPIIGKNKKDIIKEAKELKDACLDIIEWRVDFFENVENIKEVKEVLYELRSYIHDIPLLFTFRSVVEGGEKLISRDYYTTLNKEISNTGLVDLIDVELFMGDEVIDEVVNFAHKKEVKVIISNHDFNKTPKKEEIVSRLCRMQELGADLPKIAVMPQNEKDVLVLLEATNEMFKIYADRPIITMSMSGMGVISRLCGEIFGSALTFGAAKSVSAPGQISFKELNSVLNLLHKSIN | soluble |
| MGSDKIHHHHHHMYGVMIMKLKTNVFHFTPFSKKQLQVLTWWVNPSTKDSEAIICDGSVRAGKTVIMSLSYVMWAMHTFNGQQLGMAGKTIGSFRRNVLRPLKQMLAGRGYKVIDHRTDNMFEVVKNGKANYFFIFGGKDEASQDLVQGLTAAGFFFDEVALMPQSFVNQATARVSVSGGKYWFNMNPEGPYHWFKLNWIDDLKGKRALRIHFRMEDNPSLSEDVIGRYKRNYSGVFYQRYILGLWVMSEGVIYDNFNRETMVVSEPPGRCTKYYVSVDYGTQNPTVFLLWGFYNGVWYCLKEYYYDGRHSARQKTDDQYANDLDEFVGNINARIIIDPSAASFIAVLRNRHYRIIRADNDVLNGIRETQSAMNNGLIKFTDNLPNLFKELASYIWDDKASSNGEDKVIKEHDHAMDSMRYFVYMVLRHNNKAKVIKNKYF | not soluble |
| MSLQIKDEILSLLKRGKNLLAFSYGSDSSVLFYLLMQEKIDFDLVMINYKTRKNSDLEELKAKELALKFHKKIFIKHAPKFQSNFEKKARDFRYDFFEKICLEQGYDHLILAHHLNDQFEWFLMQLSRGAGLAEILGMQECEKRSNYTLLRPLLFISKDEISSFLKEKDIFYFHDESNENEKYFRNYIRKNFSNAFVSEFHQGLKRSFSYLDEDRKKLYDFENIKEIQGLLICPKNESLIARAVKMKGLLLSTAQRKELLKGDCVLGGKIALAYKNEQAIVFEYETCQKLPKNFKEECRIAKIPRLLRAYLYNHKIDISSLSEGHHHHHH | soluble |
| MRERKKYGKHIPKSLSSKINKRKLIQKNICTNYKTIKIIDIYENLPYNQLNNGRTKIKEIILANDVLVVLLISGISRAYNMINGEFLCEINPNNFSVVHTIVYNSYNNTLIIAYASFPAHLQCKVIDCNDLKHGITNSSKLGILFGT | not soluble |
| METLGVQTNSELREELNRLKEENARLKKELNQHQVIVNNTLDAIFICDNEMRIVQANEATERMLQVDSEDLKKRSVLDFLFSIPKDELNLSVKKFFKKGFLWKEVPIRLDCGATKYIEFLAKRGIGEDFFFVVMRDIS | not soluble |
